Article PMC7885398, “Multi-carbon dots and aptamer based signal amplification ratiometric fluorescence probe for protein tyrosine kinase 7 detection”

Target: T1, Protein tyrosine kinase 7 (PTK 7) (UniProt Q13308 31-704)
T1 sequence: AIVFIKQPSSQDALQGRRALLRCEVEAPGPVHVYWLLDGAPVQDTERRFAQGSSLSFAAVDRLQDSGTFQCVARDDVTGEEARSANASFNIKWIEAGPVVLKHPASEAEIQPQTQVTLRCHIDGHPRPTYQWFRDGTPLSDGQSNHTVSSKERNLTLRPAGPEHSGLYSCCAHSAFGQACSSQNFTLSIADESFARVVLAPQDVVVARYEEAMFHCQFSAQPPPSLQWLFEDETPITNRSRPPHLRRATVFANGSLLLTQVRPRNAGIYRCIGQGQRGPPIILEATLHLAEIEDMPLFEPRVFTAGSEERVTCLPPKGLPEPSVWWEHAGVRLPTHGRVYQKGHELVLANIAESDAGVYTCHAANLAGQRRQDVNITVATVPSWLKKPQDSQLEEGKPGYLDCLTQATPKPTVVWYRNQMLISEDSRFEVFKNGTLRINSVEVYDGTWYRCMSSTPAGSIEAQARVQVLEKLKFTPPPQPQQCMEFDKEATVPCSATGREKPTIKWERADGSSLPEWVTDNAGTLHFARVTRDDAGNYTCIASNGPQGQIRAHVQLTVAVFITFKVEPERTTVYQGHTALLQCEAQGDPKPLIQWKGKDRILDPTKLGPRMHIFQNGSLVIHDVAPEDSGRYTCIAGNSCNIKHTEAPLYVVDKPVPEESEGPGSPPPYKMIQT
Test: competition: displacement of y-CDs-APT from Fe3O4-cDNA, ratiometric fluorescence; Fe3O4-cDNA (S2) competitor strand; PTK7 0.1-200 ng/mL, LOD 0.016 ng/mL; Buffer, salt and pH not given in material; probe hybridisation 25 °C, 60 min; DNase I amplification
Conditions: protein: recombinant; label: y-CDs (emission 580 nm); assayed pre-hybridised to partly complementary cDNA S2 on Fe3O4; PTK7 displaces S2

## ATCTAACTGCTGCGCCGCCGGGAAAATACTGTACGGTTAGA (ssDNA, conjugated to yellow carbon dots (y-CDs); attachment end not stated) [APT (PTK7 aptamer), as y-CDs-APT]
  binding result: binds
